The results in this text go back to patent US20240425885.

Common to all, as to test: cleavage_in_vitro
Data set [1] relates to T1, OMNI-93 (metagenomic, unknown).
T1 sequence: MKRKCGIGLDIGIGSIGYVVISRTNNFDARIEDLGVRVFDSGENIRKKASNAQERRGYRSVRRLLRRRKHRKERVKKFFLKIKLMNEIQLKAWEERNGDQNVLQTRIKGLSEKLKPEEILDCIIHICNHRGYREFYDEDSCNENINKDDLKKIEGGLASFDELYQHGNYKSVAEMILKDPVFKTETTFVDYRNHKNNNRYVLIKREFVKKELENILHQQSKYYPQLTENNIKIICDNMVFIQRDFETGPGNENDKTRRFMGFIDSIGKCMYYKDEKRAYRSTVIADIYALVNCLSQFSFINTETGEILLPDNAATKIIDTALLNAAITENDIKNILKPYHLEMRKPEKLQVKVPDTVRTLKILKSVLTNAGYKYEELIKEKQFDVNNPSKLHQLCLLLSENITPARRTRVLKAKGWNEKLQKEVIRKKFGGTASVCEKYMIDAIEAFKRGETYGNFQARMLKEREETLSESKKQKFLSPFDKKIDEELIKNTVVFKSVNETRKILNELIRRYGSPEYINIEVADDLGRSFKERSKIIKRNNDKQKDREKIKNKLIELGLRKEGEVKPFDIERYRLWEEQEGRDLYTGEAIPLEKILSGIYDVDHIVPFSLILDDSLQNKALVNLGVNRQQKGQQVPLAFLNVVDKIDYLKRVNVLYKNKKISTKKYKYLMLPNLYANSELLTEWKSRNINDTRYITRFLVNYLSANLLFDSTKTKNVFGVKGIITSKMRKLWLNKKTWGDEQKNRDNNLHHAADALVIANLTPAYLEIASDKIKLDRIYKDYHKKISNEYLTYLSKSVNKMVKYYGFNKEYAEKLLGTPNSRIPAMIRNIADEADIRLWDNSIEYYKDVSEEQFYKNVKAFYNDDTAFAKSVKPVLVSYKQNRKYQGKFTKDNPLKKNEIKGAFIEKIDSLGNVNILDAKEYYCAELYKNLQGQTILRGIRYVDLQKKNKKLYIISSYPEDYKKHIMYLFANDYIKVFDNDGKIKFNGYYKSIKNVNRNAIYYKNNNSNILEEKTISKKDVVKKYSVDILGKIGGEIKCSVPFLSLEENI
The following applies: TXTL.

In data set [2] the test system is T2, OMNI-118 (metagenomic, unknown).
T2 sequence: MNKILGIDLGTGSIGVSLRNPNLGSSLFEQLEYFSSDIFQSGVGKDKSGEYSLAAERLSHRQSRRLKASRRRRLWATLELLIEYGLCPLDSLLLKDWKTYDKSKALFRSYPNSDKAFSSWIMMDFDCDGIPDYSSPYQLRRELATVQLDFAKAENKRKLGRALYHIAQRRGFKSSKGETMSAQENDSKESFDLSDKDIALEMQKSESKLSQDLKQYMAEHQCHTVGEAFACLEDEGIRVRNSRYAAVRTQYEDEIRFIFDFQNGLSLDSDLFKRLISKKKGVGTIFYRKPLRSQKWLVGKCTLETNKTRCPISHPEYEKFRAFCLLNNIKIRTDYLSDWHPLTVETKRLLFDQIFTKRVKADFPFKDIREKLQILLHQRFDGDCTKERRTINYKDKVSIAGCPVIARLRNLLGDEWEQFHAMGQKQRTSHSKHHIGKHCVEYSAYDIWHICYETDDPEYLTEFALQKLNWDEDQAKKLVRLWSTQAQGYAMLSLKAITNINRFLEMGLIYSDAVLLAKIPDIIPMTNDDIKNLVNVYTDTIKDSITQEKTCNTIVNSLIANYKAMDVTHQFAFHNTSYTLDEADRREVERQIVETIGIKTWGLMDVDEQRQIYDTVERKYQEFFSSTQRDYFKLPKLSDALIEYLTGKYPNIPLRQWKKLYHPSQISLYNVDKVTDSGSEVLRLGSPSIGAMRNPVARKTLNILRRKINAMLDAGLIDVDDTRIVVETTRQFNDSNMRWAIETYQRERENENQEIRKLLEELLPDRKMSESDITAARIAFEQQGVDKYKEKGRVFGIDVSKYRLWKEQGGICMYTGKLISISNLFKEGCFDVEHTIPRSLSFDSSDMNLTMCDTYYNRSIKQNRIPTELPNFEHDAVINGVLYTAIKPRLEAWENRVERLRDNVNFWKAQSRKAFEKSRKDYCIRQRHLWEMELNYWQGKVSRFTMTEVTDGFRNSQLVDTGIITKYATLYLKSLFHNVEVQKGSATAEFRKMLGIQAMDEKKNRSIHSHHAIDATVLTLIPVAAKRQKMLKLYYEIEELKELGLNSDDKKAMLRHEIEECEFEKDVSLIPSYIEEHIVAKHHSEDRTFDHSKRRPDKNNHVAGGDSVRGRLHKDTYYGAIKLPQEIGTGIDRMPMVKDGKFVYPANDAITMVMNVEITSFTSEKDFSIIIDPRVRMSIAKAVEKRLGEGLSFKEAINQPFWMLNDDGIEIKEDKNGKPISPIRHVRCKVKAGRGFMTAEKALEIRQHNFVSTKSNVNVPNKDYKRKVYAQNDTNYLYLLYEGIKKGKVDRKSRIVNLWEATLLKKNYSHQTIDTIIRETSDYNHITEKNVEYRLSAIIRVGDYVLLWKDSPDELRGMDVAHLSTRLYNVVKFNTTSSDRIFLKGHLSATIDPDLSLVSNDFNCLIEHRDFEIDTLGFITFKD
Conditions: TXTL; PAM NNRTTHNN

Data set [3] concerns T3, OMNI-132 (metagenomic, unknown).
T3 sequence: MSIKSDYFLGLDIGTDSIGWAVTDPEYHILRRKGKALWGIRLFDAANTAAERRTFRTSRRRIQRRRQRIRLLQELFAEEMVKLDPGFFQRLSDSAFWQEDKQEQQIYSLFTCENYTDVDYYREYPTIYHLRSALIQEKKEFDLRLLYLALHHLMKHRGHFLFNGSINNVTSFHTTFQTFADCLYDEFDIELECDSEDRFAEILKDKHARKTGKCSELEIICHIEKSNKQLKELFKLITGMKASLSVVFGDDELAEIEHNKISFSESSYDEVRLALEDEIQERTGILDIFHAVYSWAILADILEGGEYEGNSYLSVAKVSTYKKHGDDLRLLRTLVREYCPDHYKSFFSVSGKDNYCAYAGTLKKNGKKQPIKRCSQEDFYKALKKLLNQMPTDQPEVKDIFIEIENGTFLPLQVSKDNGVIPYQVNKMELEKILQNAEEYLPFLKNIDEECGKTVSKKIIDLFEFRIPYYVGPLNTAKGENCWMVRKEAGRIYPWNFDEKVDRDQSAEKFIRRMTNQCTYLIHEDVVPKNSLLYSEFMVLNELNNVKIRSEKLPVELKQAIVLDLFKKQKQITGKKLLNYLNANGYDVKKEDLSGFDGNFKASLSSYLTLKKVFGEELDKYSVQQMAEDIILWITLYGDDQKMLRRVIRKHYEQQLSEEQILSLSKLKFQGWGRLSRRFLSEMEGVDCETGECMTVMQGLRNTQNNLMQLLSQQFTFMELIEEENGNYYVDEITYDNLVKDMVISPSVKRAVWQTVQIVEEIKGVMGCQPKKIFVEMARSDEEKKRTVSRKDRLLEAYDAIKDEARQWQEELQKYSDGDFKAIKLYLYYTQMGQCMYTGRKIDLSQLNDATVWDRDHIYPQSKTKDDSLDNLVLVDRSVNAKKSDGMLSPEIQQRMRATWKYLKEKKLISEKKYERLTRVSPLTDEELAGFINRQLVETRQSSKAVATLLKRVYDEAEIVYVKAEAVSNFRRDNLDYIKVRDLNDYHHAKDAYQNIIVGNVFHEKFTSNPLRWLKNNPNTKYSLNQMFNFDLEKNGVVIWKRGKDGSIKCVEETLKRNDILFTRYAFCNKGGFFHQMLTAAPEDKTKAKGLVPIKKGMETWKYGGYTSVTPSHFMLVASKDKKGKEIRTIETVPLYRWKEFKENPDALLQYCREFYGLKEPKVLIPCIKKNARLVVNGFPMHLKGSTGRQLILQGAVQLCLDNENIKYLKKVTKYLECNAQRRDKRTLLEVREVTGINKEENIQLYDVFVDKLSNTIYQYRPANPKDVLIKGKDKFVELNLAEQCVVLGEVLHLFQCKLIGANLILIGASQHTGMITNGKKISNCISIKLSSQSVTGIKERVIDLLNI
The following applies: TXTL; PAM NNAAATNN

As for “GGAAGAGCAGAGCCUUGGUCUCGUCUUAGUACUCUGUUGGAAACAACAAUAGUUCUAAGAUAAGGCUAUUUAUGCCGUAGGGUAUGGUGGUAUCCCUUUAAUCCACCUUUAAGCCAUUGCUUAUGCAAUGGCUUAUCUAUAUUUUUU / GGAAGAGCAGAGCCTTGGTCTCNNNNNNNN / NNNNNNNNGAGACCAAGGCTCTGCTCTTCC [T2 sgRNA 4 V2 ; T2 protospacer + 8N PAM library (pbPOS T2)]”, in data set [1] (PAM NNGGGGNN), the activity (1-depletion score) was 0.97.
In data set [2], “GGAAGAGCAGAGCCUUGGUCUCGUUGUGAUUUGCUCUCAAAUGAAAAUUUGUGAGACUUAUCACAACAAGGCUAUAAGCCGAAGUAUUAACUCCGCGAUUUUGUCGUGGAGUUUUUUU / GGAAGAGCAGAGCCTTGGTCTCNNNNNNNN / NNNNNNNNGAGACCAAGGCTCTGCTCTTCC [T2 sgRNA 21 V1 ; T2 protospacer + 8N PAM library (pbPOS T2)]” registered an activity (1-depletion score) of 0.66.
As for “GGAAGAGCAGAGCCUUGGUCUCGUUUGAGAGUAGUGUAAGAAAUUACACUACAAGUUCAAAUAAAAAUUUAUUCAAAUCCUUUUGCUACAUUGUGUAGAAUUUAAAGAUCUGGCAACAGAUCUUUUUUAUUUUUU / GGAAGAGCAGAGCCTTGGTCTCNNNNNNNN / NNNNNNNNGAGACCAAGGCTCTGCTCTTCC [T2 sgRNA 32 V1 ; T2 protospacer + 8N PAM library (pbPOS T2)]”, the activity (1-depletion score) in data set [3] was 0.97.
In the case of “GGAAGAGCAGAGCCUUGGUCUCGUUUGAGAGUAGUGUAAGAAAUUACACUACAAGUUCAAAUAAAAAUUUAUUCAAAUCCAUUUGCUACAUUGUGUAGAAUUUAAAGAUCUGGCAACAGAUCUUUUUUU / GGAAGAGCAGAGCCTTGGTCTCNNNNNNNN / NNNNNNNNGAGACCAAGGCTCTGCTCTTCC [T2 sgRNA 12 V2 ; T2 protospacer + 8N PAM library (pbPOS T2)]”, the activity (1-depletion score) in data set [3] was determined as 0.97.
Regarding “GGAAGAGCAGAGCCUUGGUCUCGUUGUGAUUUGCUCUCAAAUGAAAAUUUGUGAGACUUAUCACAACAAGGCUAUAAGCCGAAGUAUUAACUCCGCGAUUAUGUCGUGGAGUUUUUUU / GGAAGAGCAGAGCCTTGGTCTCNNNNNNNN / NNNNNNNNGAGACCAAGGCTCTGCTCTTCC [T2 sgRNA 21 V2 ; T2 protospacer + 8N PAM library (pbPOS T2)]”, the activity (1-depletion score) in data set [2] turned out to be 0.78.
In turn, “GGAAGAGCAGAGCCUUGGUCUCGUUUUAGUACUCUGUUGGAAACAACAAUAGUUCUAAGAUAAGGCUAUUUAUGCCGUAGGGUAUGGUGGUAUCCCUUUAAUCCACCUUUAAGCCAUUGCUUAUGCAAUGGCUUAUCUAUAUUUUUU / GGAAGAGCAGAGCCTTGGTCTCNNNNNNNN / NNNNNNNNGAGACCAAGGCTCTGCTCTTCC [T2 sgRNA 4 V1 ; T2 protospacer + 8N PAM library (pbPOS T2)]” yielded an activity (1-depletion score) in data set [1] (PAM NNGGGGNN (specific NNRGGDNN)) of 0.99.
